By EC50 is commonly meant the concentration at which the effect is half-maximal. As usually defined, the Kd is the free concentration of one partner at which half of the binding sites on the other are occupied at equilibrium, for simple one-to-one binding. Usually koff stands for a measure of how fast the partners let go of each other. By kon is commonly meant a measure of how fast the partners come together.

The target of experiment [1] is recombinant human TfR1 (transferrin receptor 1) (human) (UniProt P02786). As to the kind of experiment: ELISA, plate coated with 1 µg/ml recombinant human TfR1, purified VNAR-Fc titrated, 4-parameter fit. (In general: In an ELISA, binding on a coated surface is turned into a signal by an enzyme label.)
The target of experiment [2] is recombinant mouse TfR1 (transferrin receptor 1) (mouse) (UniProt Q62351). The experiment can be described thus: ELISA on coated mouse TfR1, purified VNAR-Fc.
Experiment [3] deals with recombinant human TfR1 (transferrin receptor 1) (human) (UniProt P02786). The experiment can be described thus: ELISA on coated human TfR1, purified VNAR-Fc.
Experiment [4] deals with recombinant mouse TfR1 (transferrin receptor 1) (mouse) (UniProt Q62351). The experiment can be described thus: SPR (Biacore), single-cycle kinetics, His-tagged TfR1 captured, VNAR-Fc injected. (SPR reads the build-up and loss of mass on a sensor chip optically.)
For experiment [5], the target named is recombinant human TfR1 (transferrin receptor 1) (human) (UniProt P02786). Described as above.
In experiment [6] the target is recombinant mouse TfR1 (transferrin receptor 1) (mouse) (UniProt Q62351). The experiment can be described thus: Octet, mouse TfR1 on anti-His biosensors, analyte 10 nM, PBS pH 6.0. Background: Biolayer interferometry detects binding as a change in optical thickness at a sensor tip.
The target is the same in experiment [7]. The experiment can be described thus: Octet, mouse TfR1 immobilised on biosensors; row buffer (no first antibody), column cont. (taken as the control VNAR F02).
The target is the same in experiment [8]. As to the kind of experiment: ELISA, plate coated with 1 µg/ml recombinant mouse TfR1, purified VNAR-Fc titrated, 4-parameter fit.
Experiment [9] has as its target recombinant human TfR1 (transferrin receptor 1) (human) (UniProt P02786). The experiment can be described thus: Octet, human TfR1 immobilised; 8D3 as first antibody, which does not bind human TfR1 (grey column); white cell; cont. taken as the control VNAR F02.
The target in experiment [10] is recombinant mouse TfR1 (transferrin receptor 1) (mouse) (UniProt Q62351). The experiment can be described thus: Octet, mouse TfR1 on anti-His biosensors, analyte 10 nM, PBS pH 7.2.
Experiment [11] deals with recombinant human TfR1 (transferrin receptor 1) (human) (UniProt P02786). As to the kind of experiment: Octet, human TfR1 immobilised on biosensors; row buffer (no first antibody), column cont. (taken as the control VNAR F02).

Sequence of recombinant mouse TfR1 (transferrin receptor 1) (mouse) (Q62351 89-763 limits assumed): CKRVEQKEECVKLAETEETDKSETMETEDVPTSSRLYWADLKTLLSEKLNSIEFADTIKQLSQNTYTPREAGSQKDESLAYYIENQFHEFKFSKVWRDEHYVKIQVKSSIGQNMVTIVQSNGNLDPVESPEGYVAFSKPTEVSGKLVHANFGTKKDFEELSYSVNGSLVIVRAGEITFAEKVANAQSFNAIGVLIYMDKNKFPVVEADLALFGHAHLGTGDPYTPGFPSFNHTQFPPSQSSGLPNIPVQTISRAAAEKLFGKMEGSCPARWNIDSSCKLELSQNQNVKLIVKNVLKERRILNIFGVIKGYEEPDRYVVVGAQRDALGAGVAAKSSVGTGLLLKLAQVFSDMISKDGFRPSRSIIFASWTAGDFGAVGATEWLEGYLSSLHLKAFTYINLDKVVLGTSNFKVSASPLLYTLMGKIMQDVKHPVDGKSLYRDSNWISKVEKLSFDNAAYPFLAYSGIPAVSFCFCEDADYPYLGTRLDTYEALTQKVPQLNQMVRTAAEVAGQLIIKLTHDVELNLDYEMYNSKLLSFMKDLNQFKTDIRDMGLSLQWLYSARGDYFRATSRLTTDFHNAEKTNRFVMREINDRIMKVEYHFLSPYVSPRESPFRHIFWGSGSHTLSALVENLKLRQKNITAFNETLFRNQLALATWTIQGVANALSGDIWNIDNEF
Sequence of recombinant human TfR1 (transferrin receptor 1) (human) (P02786 89-760 limits assumed): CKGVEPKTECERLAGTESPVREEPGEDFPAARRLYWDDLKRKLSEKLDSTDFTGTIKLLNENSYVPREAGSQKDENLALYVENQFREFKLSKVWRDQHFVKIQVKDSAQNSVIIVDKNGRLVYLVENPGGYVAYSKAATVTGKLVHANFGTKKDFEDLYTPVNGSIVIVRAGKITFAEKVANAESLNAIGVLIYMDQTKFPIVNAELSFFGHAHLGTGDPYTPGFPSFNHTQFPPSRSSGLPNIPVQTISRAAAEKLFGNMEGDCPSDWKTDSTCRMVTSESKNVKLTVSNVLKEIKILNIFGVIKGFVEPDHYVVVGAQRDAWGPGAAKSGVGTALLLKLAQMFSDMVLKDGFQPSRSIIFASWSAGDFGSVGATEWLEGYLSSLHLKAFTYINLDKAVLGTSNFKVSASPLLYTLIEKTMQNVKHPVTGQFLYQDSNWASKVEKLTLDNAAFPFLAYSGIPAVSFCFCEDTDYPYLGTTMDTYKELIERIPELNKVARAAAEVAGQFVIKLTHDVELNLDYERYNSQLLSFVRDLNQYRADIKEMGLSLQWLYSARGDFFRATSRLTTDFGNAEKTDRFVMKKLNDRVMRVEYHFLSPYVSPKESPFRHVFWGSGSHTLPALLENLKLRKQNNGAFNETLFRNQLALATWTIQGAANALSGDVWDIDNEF

For the substance F02 control VNAR-Fc (Fc fusion), the EC50 was found to be 3.69 nM in experiment [1], 10 nM in experiment [2], 1 nM in [3] and 38.2 nM in [8]. The dissociation constant (Kd) turned out to be 1.46 nM in experiment [4], 0.969 nM in experiment [5], 0.344 nM in experiment [6] and 0.294 nM in experiment [10]. For the same substance, the off-rate (koff) in [4] was 0.00016 s⁻¹; in experiment [5] it was 0.00011 s⁻¹; in experiment [6], 0.000147 s⁻¹; in experiment [10], 9.86e-05 s⁻¹. The kon in experiment [4] was determined as 109000 M⁻¹ s⁻¹; in experiment [5] it was 113000 M⁻¹ s⁻¹; in [6], 426000 M⁻¹ s⁻¹; in [10], 335000 M⁻¹ s⁻¹. The results for the Octet signal as second antibody after buffer in experiment [7] and in [11] were 0.194 and 0.386, respectively. Besides, in experiment [9], the Octet signal as second antibody after 8D3 came out at 0.381.

For the origin of these results see patent US20220031857A1.
